Laboratory results as given in US20060003931A1.

Key:
[1] = target: Met-IgG fusion protein (Homo sapiens (Human)) (UniProt P08581); assay: HGF β/Met-IgG competition ELISA; tracer 250 nM biotinylated wildtype HGF β
[2] = target: Met-IgG fusion protein (Homo sapiens (Human)) (UniProt P08581); assay: HGF β/Met-IgG competition ELISA; tracer biotinylated HGF β

UniProt P08581, sequence (P08581 25-930 limits assumed, form in doubt): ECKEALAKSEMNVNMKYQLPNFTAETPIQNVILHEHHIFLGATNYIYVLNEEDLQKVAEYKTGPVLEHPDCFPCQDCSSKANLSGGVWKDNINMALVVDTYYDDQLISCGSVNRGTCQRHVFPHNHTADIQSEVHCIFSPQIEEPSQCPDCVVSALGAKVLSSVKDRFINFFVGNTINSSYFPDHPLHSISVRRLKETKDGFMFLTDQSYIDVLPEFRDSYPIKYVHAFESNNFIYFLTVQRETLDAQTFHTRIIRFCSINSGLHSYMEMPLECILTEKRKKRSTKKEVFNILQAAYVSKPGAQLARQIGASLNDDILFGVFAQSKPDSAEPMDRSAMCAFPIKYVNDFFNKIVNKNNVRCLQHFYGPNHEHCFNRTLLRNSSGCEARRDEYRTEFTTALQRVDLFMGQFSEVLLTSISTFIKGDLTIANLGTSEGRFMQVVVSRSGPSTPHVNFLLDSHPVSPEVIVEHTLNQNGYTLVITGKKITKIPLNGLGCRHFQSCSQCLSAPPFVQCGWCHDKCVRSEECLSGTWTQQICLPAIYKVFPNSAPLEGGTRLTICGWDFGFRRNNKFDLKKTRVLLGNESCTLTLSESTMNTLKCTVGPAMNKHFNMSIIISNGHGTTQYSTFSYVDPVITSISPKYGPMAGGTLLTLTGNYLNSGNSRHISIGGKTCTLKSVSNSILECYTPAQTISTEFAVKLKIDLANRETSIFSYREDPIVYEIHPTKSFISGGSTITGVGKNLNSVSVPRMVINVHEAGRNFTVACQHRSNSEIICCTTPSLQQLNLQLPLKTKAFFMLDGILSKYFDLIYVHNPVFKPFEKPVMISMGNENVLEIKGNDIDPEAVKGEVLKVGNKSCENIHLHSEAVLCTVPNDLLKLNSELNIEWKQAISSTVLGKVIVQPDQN

For “proHGF β (HGF residues Asn479 to Ser728 with R494E) (from UniProt P14210 479-728) (ligand)”, which IC50 [1] is on record?
The IC50 was 11.6 µM.

And the fold reduced binding against HGF β [1]?
Its fold reduced binding against HGF β is 13.5 fold.

And the relative IC50 (normalized to HGF β) (relative to HGF β) [2]?
Its relative IC50 (normalized to HGF β) (relative to HGF β) is 21.
